Experimental data: article PMC6497953

Molecular target: PilE2, major pilin of Streptococcus sanguinis 2908 type IV pili (mature, untagged) (Streptococcus sanguinis 2908)
Assay: top-down mass spectrometry of purified filaments; purified Tfp from S. sanguinis WT, intact protein mass spectra on an LTQ Orbitrap; ratio of the two major proteoforms

PilE1, major pilin of Streptococcus sanguinis 2908 type IV pili (mature, untagged) (natural protein)
stoichiometry N (PilE1 per PilE2): 1.33
